Laboratory results reported in the RNAGym collection of RNA variant scans (doi:10.7554/elife.80360).

B1: HDV Ribozyme (parent)
chain: GGCCGGCAUGGUCCCAGCCUCCUCGCUGGCGCCGGCUGGGCAACAUUCCGAGGGGACCGUCCCCUCGGUAAUGGCGAAUGGGACCCA

Variants of: B1
Assay: self-cleavage, relative activity (ratio to wild type); higher = more cleavage; co-transcriptional

Variant | self-cleavage
U47C G81C | 0.151
C48U U60C | 1.27
C49A C66A | 0.786
U47C C84G | 0.604
U47C C84U | 0.475
C48U C85A | 1.03
C49A A83G | 0.546
C48G A78C | 0.199
C48G A78G | 0.86
C48U C64A | 0.554
C48G G68C | 1.14
C48G G53A | 1.06
U47G C49U | 1.32
U47G C49G | 0.87
U47G G53U | 0.973
C49A C57A | 0.875
U47G A71U | 1.18
C48U U79G | 0.665
C48U U79A | 0.706
U47C C64G | 0.511
U47C C64A | 0.567
C48U C57A | 0.972
C49A A71U | 0.849
U47G C62G | 0.534

Variant | self-cleavage
U47G C62A | 1.02
C49A A70C | 0.831
C48G G80C | 0.262
C48U A56C | 0.657
C48U G74A | 0.517
C48U G53C | 0.997
C49A G50C | 1.15
C48G C84A | 0.932
C48A U79G | 0.982
C48A U79C | 0.514
U47G G52U | 0.877
U47C G80U | 0.29
C48G C62G | 0.269
C48G C62U | 0.746
C48G C62A | 0.35
C48U G50U | 0.742
C48G U60A | 0.864
C48U C58A | 1.06
C48U C58G | 1.06
C48G G74C | 0.0755
C48G G74A | 0.305
C48G G81C | 0.185
C48G G81A | 0.489
C48U U69A | 1.04

Variant | self-cleavage
C48U U69C | 1.07
C48U G67A | 0.818
C48U A71G | 1.03
C48G C58U | 0.617
C48G C58G | 1.11
U47G C61U | 0.943
U47G C61G | 0.554
C48A G73A | 0.755
U47G U65C | 0.923
U47G U65G | 0.95
U47G G59U | 1.12
U47G G59A | 1.14
U47G U79C | 0.322
C48U A87U | 0.942
C48A C61A | 1.02
C48G C75G | 0.0639
C48U G80C | 0.243
C48U G80A | 0.297
U47C U79A | 0.65
U47C U79G | 0.415
U47C U79C | 0.297
C48A U65A | 0.845
C48U G52U | 0.577
C48A C66A | 0.92

Variant | self-cleavage
C48A C66U | 0.988
U47G C58U | 0.942
C48A G82C | 0.35
C48A G52C | 1.03
U47G A77G | 0.923
C48U U72A | 0.855
C48U U72C | 0.554
C49A C63G | 0.256
C49A C63U | 0.817
C48G C61G | 1.06
U47C C86G | 0.675
U47G A78G | 1.19
C48U G59A | 1.06
C48U G68U | 0.893
C48U G68C | 0.959
U47C U60C | 1.05
U47G G81C | 0.128
C48U G55A | 0.75
C48U C61U | 0.856
C49A C64A | 0.284
C48A G80U | 0.242
U47C G50A | 0.749
C48G U79A | 0.911
U47G C64U | 1.28

Variant | self-cleavage
C48A C64U | 0.923
U47G A87U | 0.974
C48G C85U | 0.831
C48U C63G | 0.542
C48U C63U | 0.969
C48A A87C | 1.16
C48A A87U | 1.03
U47G G82C | 0.237
C48A A77G | 0.601
C48A A77C | 0.237
C48A A77U | 0.673
U47C C63U | 1.07
U47C U65A | 0.923
C48A G68U | 1.1
C48U C86A | 0.985
C48U C86G | 1.14
C48U C86U | 1.09
U47G U69A | 1.27
C48A A71U | 0.867
C48A A71C | 0.688
C48G G67A | 0.91
C48U G82C | 0.196
C48G G55C | 0.851
C48G G55U | 0.972

Variant | self-cleavage
C48G A70G | 0.772
U47C G53A | 0.87
U47C G53C | 0.653
C48G C86A | 1.09
U47G C86A | 0.814
U47G A83C | 0.434
U47G G50U | 0.831
C48A A56C | 1.18
C48A G54U | 0.975
C48A G54A | 1.06
C48A G54C | 1.17
C49A C62U | 0.933
C49A C62A | 0.81
U47C A83G | 0.612
C48G G54A | 0.372
C48A A51G | 0.903
C48A A51C | 1.03
C48G A77U | 0.748
C48U C75A | 0.199
C49A A78U | 0.248
C48G C49G | 0.906
C48U A70C | 0.649
C48G U72C | 0.449
C48A C62A | 0.878

Variant | self-cleavage
C48G C64G | 0.266
C48G C64U | 0.85
U47C U72G | 0.791
U47G C85G | 1.18
U47G C85A | 0.959
U47G C63U | 1.27
C48A C58U | 1.11
C48G G59C | 0.831
U47C C66A | 0.875
C48G C57G | 1.03
C48U A78C | 0.115
U47C C75A | 0.214
C48A G59A | 1.22
C48G C63G | 0.306
U47C C85U | 0.831
U47C C85G | 0.831
U47C G76A | 0.787
U47C G68A | 0.867
U47C G68U | 0.462
U47G C57U | 0.985
U47C C48U | 0.597
U47C C48A | 0.875
C48A G74C | 0.208
